Positions count from the first letter of the chain named. Values belong to the binder of their own block, whether it stands above or below them. No end group written: not given here.
Tests used:
[1] = biological target: T1, human OX40 (CD134), full length, expressed on cells (activated human T cells); EL4-OX40 and CHO-OX40 … (human, UniProt P43489 29-277); assay: cell-based or functional assay
T1 sequence: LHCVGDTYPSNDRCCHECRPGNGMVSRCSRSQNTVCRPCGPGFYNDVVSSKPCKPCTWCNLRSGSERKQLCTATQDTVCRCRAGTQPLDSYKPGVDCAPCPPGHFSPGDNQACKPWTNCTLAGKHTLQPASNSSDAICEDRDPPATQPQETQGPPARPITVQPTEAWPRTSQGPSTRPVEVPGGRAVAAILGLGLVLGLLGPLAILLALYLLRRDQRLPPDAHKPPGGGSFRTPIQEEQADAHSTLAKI

human OX40 peptide 112A = biological target: T2, human OX40 peptide 112A (human, also: conjugated to KLH via maleimide linker); assay: ELISA on coated KLH-conjugated peptide
T2 peptide: RPAGPGFYNDVVSSKPC
Experimental: (§1) Antibody titers, specificity, and production by hybridomas were determined by ELISA. In brief, 96 well flat bottom plates were coated with 50 μl of hOX40:hFc at 5 μg/ml in carbonate buffer (pH 9.4) overnight at 4° C. or at 37° C. for one hour. After washing twice with PBS/0.1% Tween 20, plates were blocked with PBS/1% BSA/0.1% Tween20 at 37° C. for one hour. The serum, supernatant, or purified antibody was diluted in blocking buffer, added to the wells, and the plates were incubated for one hour at 37° C. The plates were washed four times with PBS/0.1% Tween 20 and the peroxidase conjugated sheep anti-human kappa detection antibody (The Binding Site, Birmigham, UK) was added at a dilution of 1:2000. Following one hour incubation at 37° C., the plates were washed and the TMB (Sigma) substrate was added and incubated at room temperature for ten to thirty minutes. The reaction was stopped with H₂SO₄ (LabChem) and the optical density was measured at 450 nm by a microplate reader.
(§2) The peptides were generated by A & A Lab, LLC and conjugated to keyhole limpet hemocyanin (“KLH”) with a maleimide linker following the manufacturer's instructions (Pierce). The peptides were coated at 10 μg/ml in carbonate buffer to 96 well Maxisorp ELISA plates (Nunc) at 4° C. overnight. The plate was washed with PBS/0.1% Tween 20 and then blocked with Casein buffer (Pierce) for three hours at room temperature. Candidate antibodies were added at 10 μg/ml diluted in 10% Casein in PBS/0.1% Tween 20. The remainder of the ELISA was performed as described for the OX40 specific antibody detection ELISA.

human OX40 peptide 112B = biological target: T3, human OX40 peptide 112B (human, also: conjugated to KLH via maleimide linker); assay: ELISA on coated KLH-conjugated peptide
T3 peptide: RAGTQPLDSYKPGVDC
Experimental: as §1, §2

human OX40 peptide 112C = biological target: T4, human OX40 peptide 112C (human, also: conjugated to KLH via maleimide linker); assay: ELISA on coated KLH-conjugated peptide
T4 peptide: LAGKHTLQPASNSSDAIC
Experimental: as §1, §2

[2] = biological target: T5, human OX40 extracellular domain fused to the Fc portion of human IgG1 (hOX40:hFc) (human); assay: ELISA, OX40L-FLAG binding to coated hOX40:hFc, anti-FLAG-HRP
T5 construct: Made in Tn5 insect cells; also called OX40-hIgG1; human OX40:hIgG1 fusion protein
Experimental: (§3) The ability of 112F32, 112V8, 112Y131, 112Y55, and 112Z5 to block soluble hOX40L binding to coated hOX40:hFc fusion protein was tested using an ELISA protocol (FIG. 5A, Table 3). The plates were coated with hOX40:hFc and after blocking non-specific sites the anti-OX40 antibodies were allowed to bind. Without washing OX40L-FLAG was added to the wells. Bound ligand was detected with anti-FLAG-HRP secondary antibody. Percent inhibition was determined using the following formula (100−(OD sample/OD maximum OX40L binding))*100. 112V8, 112Y55, and 112Y131 prevented 85% of the binding of soluble OX40L to hOX40:hFc. 112F32 prevented approximately 70% of the binding of soluble hOX40L to hOX40:hFc and 112Z5 blocked 67% of the maximal binding.

[3] = biological target: T5, human OX40 extracellular domain fused …; assay: ELISA, blocking of OX40L-FLAG binding to coated hOX40:hFc
Experimental: as §3

[4] = biological target: T1, human OX40 (CD134), full length, …; assay: flow cytometry, blocking of OX40L-FLAG binding to activated human T cells
From the text: The activated T cells were also stained with mouse anti-human OX40 antibody L106 (Becton Dickinson), which was directly conjugated to phycoerythrin or whose binding was detected with anti-mouse IgG-PE (Southern Biotechnology Associates.) OX40L Blocking Assays: To determine if the anti-human OX40 antibodies could block OX40L binding to soluble OX40 both ELISA and flow cytometric protocols were used. In the ELISA 96 well Nunc flat bottom plates were coated with recombinant soluble hOX40:hFc at 2 μg/ml in carbonate buffer (pH9.4) for one hour at 37° C. The plates were washed with PBS/0.1% Tween 20 and Superblock (Pierce) was added to the wells to block non-specific binding. The test antibodies were diluted to 1 μg/ml in PBS/Tween and added to the plates. After one hour incubation at 37° C., FLAG tagged recombinant soluble human OX40L (Alexis Biochemicals, San Diego, Calif.) was added to the appropriate wells without washing out the anti-OX40 antibodies. Following one hour incubation, the plates were washed and an anti-FLAG-peroxidase conjugated antibody (Sigma) was added to the wells for one hour at 37° C. The TMB substrate was added, after ten minutes the reaction was stopped with H₂SO₄, and the results were read at 450 nm using a microplate reader. In the flow cytometric assay, human CD4+ T cells were purified and activated with PHA+IL2 for two days. The cells were washed and resuspended in staining buffer and then incubated with increasing amounts of human anti-human OX40 antibodies for twenty minutes on ice, from 0.005-50 μg/ml. Soluble recombinant OX40L-FLAG was then added to the cells. The cells were washed and incubated with anti-FLAG conjugated to PE (Sigma). After another wash, the cells were fixed with 1% paraformaldehyde and analyzed on a FACScan or FACScalibur.
Slightly different results were obtained when a flow cytometric based assay was used to monitor blockade of soluble OX40L binding to activated human T cells that express OX40 (FIG. 5B). Activated human T cells were labeled with anti-OX40 antibodies followed by soluble flag tagged-human OX40L. Binding of OX40L was detected with anti-FLAG-PE antibody. Percent inhibition was determined using the same formula, i.e., (100−(sample/maximum binding))*100.

T5 sequence (chain, as listed by the source limits assumed): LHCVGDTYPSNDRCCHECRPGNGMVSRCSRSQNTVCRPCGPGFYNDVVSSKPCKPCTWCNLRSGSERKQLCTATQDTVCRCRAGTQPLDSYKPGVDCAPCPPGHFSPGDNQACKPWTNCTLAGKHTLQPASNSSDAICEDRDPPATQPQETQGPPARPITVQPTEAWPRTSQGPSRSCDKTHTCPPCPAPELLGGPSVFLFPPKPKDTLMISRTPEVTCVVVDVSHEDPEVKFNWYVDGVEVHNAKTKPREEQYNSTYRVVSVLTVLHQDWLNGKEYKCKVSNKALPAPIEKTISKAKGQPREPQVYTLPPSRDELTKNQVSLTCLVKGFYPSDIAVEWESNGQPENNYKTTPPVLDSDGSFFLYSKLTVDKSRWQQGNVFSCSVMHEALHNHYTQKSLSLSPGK

ADCC % Lysis at 10 µg/ml [1]: 54.2%
binding result (human OX40 peptide 112A): no binding (tested: 10 µg/ml)
binding result (human OX40 peptide 112B): no binding (tested: 10 µg/ml)
binding result (human OX40 peptide 112C): no binding (tested: 10 µg/ml)
percent inhibition of OX40L binding [2]: 85%
IC50 [3]: 0.073 µg/mL
IC50 [4]: 0.9 µg/mL
B1: 112Y55 human anti-human OX40 monoclonal antibody (hybridoma ATCC No. PTA-7220) (antibody, V domains shown)
VH: QITLKESGPTLVKPTQTLTLSCTFSGFSLSTSGVGVGWIRQPPGKALEWLALIHWDDAERYSPSLKSRLTITKDTSKNQVVLTMTNMDLVDTATYYCAHTRGAFDIWGQGTMVTVSS
VL: EIVLTQSPGTLSLSPGERAILSCRASQSVSSSFLAWYQQKPGQAPRLLIYGAFSRATGIPDRFSGSGSGTDFTLTISRLEPEDFAVYYCQQYDSSRTFGQGTKVEIK

ADCC % Lysis at 10 µg/ml [1]: 18%
binding result (human OX40 peptide 112A): no binding (tested: 10 µg/ml)
binding result (human OX40 peptide 112B): no binding (tested: 10 µg/ml)
binding result (human OX40 peptide 112C): no binding (tested: 10 µg/ml)
percent inhibition of OX40L binding [2]: 85%
IC50 [3]: 0.069 µg/mL
IC50 [4]: 0.91 µg/mL
B2: 112Y131 human anti-human OX40 monoclonal antibody (hybridoma ATCC No. PTA-7218) (antibody, V domains shown)
VH: B1 VH with S21T, H54Y, A58H, E59S, R60P, L89P, H99R
VL: EIVLTQSPATLSLSPGERATLSCRASQGVSSYLAWYQQKPGQAPRLLIYDASNRATGIPARFSGSGPGTDFTLTISSLEPEDFAVYYCQQRSNWHPTFGQGTKVEIK
